The record followed here is publication doi:10.1101/2024.11.03.621760 (bioRxiv, 2024).

For assay [1], the target named is prefusion MERS-CoV EMC/2012 S ectodomain trimer (MERS-CoV-2P S) (MERS-CoV EMC/2012).
Assay [2] has the same target. Description: SPR. On the technique in general: In SPR one partner is held on a chip, and binding of the other changes the refractive index at the surface.

The term Kd denotes the free concentration of one partner at which half of the binding sites on the other are occupied at equilibrium, for simple one-to-one binding. The low end stands for tighter binding, the high end for weaker binding. As a reminder, the koff is a measure of how fast the partners let go of each other. Read a high koff as a short-lived complex. One may read the kon as the second-order rate constant of association. Higher therefore signals fast association.

B1: nHALC3_919_cb3 (designed binder)
chain: MSGSPVKRFVREVLEEAEEAYEKGDRRQFEELLWLAEWAARDANDEELEEEIREFEKEVKGSGSEELLEELRELLERLQELLELIEQGKITPEQLREAIALLIEVLQILYEALRELAEQLQRLREELGGS
In the case of B1, in assay [1], the Table S6, nHALC3 919: neutralisation IC50, EMC/2012 S VSV pseudovirus, exp 1 turned out to be 5.9 nM and the Table S6, nHALC3 919: neutralisation IC50, EMC/2012 S VSV pseudovirus, exp 2 was 1.7 nM. In assay [2], this molecule gave an equilibrium dissociation constant (Kd) of 0.11 nM, a koff of 6e-05 s⁻¹ and a kon of 560000 M⁻¹ s⁻¹.

B2: cHALC3_919_cb3 (designed binder)
chain: MSGSEELLEELRELLERLQELLELIEQGKITPEQLREAIALLIEVLQILYEALRELAEQLQRLREELGGSGSPVKRFVREVLEEAEEAYEKGDRRQFEELLWLAEWAARDANDEELEEEIREFEKEVKGS
In assay [1], B2 came in with a Table S6, cHALC3 919: neutralisation IC50, EMC/2012 S VSV pseudovirus, exp 1 of 15.3 nM and a Table S6, cHALC3 919: neutralisation IC50, EMC/2012 S VSV pseudovirus, exp 2 of 5 nM.
